Series [1] deals with T1, CbFic2 (Coxiella burnetii, UniProt Q83DB6 1-378). In words: fluorescence anisotropy; Hill 0.988. The following applies: protein: recombinant; tags: N-terminal G-H-M remnant after TEV cleavage; label: 5'-FITC on one strand. A general note: Fluorescence polarisation rises when a labelled molecule tumbles more slowly, as on binding a larger partner.
In another series the target is TS-CbFic2 (Coxiella burnetii, UniProt Q83DB6 1-378). In words: fluorescence anisotropy; Hill 1.082. The following applies: protein: recombinant; tags: N-terminal Twin-Strep + EK site (G-H-M-TS-G-A-EK-H-M); label: 5'-FITC on one strand.
Series [2] addresses T1, CbFic2. Briefly: fluorescence anisotropy; Hill 1.354. As to conditions: protein: recombinant; tags: N-terminal G-H-M remnant after TEV cleavage; label: 5'-FITC on one strand.
Series [3] has as its target T1, CbFic2. In words: circular dichroism. The following applies: protein: recombinant; tags: N-terminal G-H-M remnant after TEV cleavage; blunt, self-complementary, 2 copies. For orientation: Circular dichroism is the unequal absorption of left and right circularly polarised light.
For series [4], the target named is T1, CbFic2. Briefly: fluorescence anisotropy; Hill 0.772. The following applies: protein: recombinant; tags: N-terminal G-H-M remnant after TEV cleavage; label: 5'-FITC on one strand.

B1: 5'-FITC 60 bp dsDNA (dsDNA)
DNA 1: TCACTCAAGAAGCAGACACAGTAAGACACGGTTTAGCTGATTGTTTATCGATTAGGTCAA
DNA 2: TTGACCTAATCGATAAACAATCAGCTAAACCGTGTCTTACTGTGTCTGCTTCTTGAGTGA
Turning to B1, the Kd (in general, the concentration at which binding is half-saturated) with CbFic2 [1] worked out at 0.0365 µM.

B2: 5'-FITC 20 bp dsDNA (40% GC) (dsDNA)
DNA 1: AGTTTAGTGCGCTAATCTGA
DNA 2: TCAGATTAGCGCACTAAACT
In the case of B2, the Kd in the series with TS-CbFic2 worked out at 0.116 µM; in the series with CbFic2 [2], 0.22 µM.

B3: d(CG)10 duplex, 100% GC (dsDNA)
DNA 1: CGCGCGCGCGCGCGCGCGCG
DNA 2: CGCGCGCGCGCGCGCGCGCG
Consider B3, for which the binding result with CbFic2 [3] is “binds”.

B4: 5'-FITC 40 bp dsDNA (dsDNA)
DNA 1: TTGATTACCGTCAGTTGGAGCCCATATTATACATGAAGAC
DNA 2: GTCTTCATGTATAATATGGGCTCCAACTGACGGTAATCAA
B4: in the series with CbFic2 [4], the dissociation constant Kd is 0.108 µM.
